Test [1] has as its target H1 Full-length (A/Brisbane/59/2007) (influenza A virus H1N1, UniProt B4URD6 18-565). Briefly: FACS on HEK293F.
Test [2] concerns the target miniHA cluster1+2 (A/Brisbane/59/2007) (influenza A virus H1N1, UniProt A8C8J4 18-565). The test can be described thus: FACS on HEK293F.
The target of test [3] is miniHA cluster1+3 (A/Brisbane/59/2007) (influenza A virus H1N1, UniProt A8C8J4 18-565). Briefly: FACS on HEK293F.
Test [4] deals with miniHA cluster1+2+3 (A/Brisbane/59/2007) (influenza A virus H1N1, UniProt A8C8J4 18-565). The test can be described thus: FACS on HEK293F.
In another test the target is HK68 H3m2-cl9+10+11+12 (influenza A virus H3N2, UniProt Q91MA7 17-566). The test can be described thus: FACS on HEK293F [D00014 FIG. 10B].
For the next test, the target named is FL4-06 B-m2 (influenza B virus, UniProt P03461 6-574). Briefly: FACS, transfected cells. For orientation: In flow cytometry, cells or beads pass a laser one at a time.
The target of another test is T1, FL4-06 B-m2-CL1+5 (influenza B virus, UniProt P03461 6-574).
T1 chain: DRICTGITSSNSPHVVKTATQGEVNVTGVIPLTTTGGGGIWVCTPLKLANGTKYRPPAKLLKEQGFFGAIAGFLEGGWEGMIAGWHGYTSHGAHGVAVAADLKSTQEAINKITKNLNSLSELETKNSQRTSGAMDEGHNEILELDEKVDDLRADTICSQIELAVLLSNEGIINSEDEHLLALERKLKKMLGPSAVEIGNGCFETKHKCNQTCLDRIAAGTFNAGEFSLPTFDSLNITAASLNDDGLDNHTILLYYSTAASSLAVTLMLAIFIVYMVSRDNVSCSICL
Briefly: FACS, transfected cells.

The next test deals with T2, FL4-06 B-m2-CL1+5-GCN4a (influenza B virus, UniProt P03461 6-574).
T2 chain: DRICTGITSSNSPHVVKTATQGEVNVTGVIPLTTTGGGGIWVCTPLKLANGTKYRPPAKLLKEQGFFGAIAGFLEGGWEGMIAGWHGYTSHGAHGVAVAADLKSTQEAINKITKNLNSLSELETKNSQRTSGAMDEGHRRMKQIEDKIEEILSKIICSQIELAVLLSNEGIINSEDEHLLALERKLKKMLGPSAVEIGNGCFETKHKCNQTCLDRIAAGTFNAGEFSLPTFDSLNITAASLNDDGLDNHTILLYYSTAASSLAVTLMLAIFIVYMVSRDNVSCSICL
Briefly: FACS, transfected cells.

Another test concerns the target T3, FL4-06 B-m2-CL1+5-GCN4b (influenza B virus, UniProt P03461 6-574).
T3 chain: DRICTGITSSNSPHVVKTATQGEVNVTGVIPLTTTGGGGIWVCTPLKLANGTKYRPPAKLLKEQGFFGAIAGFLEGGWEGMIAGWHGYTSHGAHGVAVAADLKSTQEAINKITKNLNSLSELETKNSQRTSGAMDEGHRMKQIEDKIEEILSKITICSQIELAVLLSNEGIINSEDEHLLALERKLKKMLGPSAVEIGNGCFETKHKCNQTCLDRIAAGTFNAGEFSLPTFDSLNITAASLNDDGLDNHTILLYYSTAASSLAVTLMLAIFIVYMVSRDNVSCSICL
The test can be described thus: FACS, transfected cells.

For a further test, the target named is T4, Mal2506-04 B-m2 (influenza B virus, UniProt P03461 6-574).
T4 chain: T1 chain with C43K, T124V, S127L, T130L, G137L, C157S, N222D, L268I, I272V
Briefly: FACS, transfected cells.

The next test has as its target T5, Mal2506-04 B-m2-CL1+5 (influenza B virus, UniProt P03461 6-574).
T5 chain: T1 chain with N222D, L268I, I272V
Briefly: FACS, transfected cells.

In test [5] the target is T6, Mal2506-04 B-m2-CL1+5-GCN4a (influenza B virus, UniProt P03461 6-574).
T6 chain: T2 chain with N222D, L268I, I272V
Briefly: FACS, transfected cells.

Test [6] concerns the target T7, Mal2506-04 B-m2-CL1+5-GCN4b (influenza B virus, UniProt P03461 6-574).
T7 chain: T3 chain with N222D, L268I, I272V
Briefly: FACS, transfected cells.

Substitutions are numbered along the chain they refer to.

B1: CR8057 (antibody, V domains shown)
VH: EVQLVESGGGLVQPGGSLRLSCAASGFTDSVIFMSWVRQAPGKGLECVSIIYIDDSTYYADSVKGRFTISRHNSMGTVFLEMNSLRPDDTAVYYCATESGDFGDQTGPYHYYAMDV
VL: QSALTQPASVSGSPGQSITISCTGSSGDIGGYNAVSWYQHHPGKAPKLMIYEVTSRPSGVSDRFSASRSGDTASLTVSGLQAEDEAHYYCCSFADSNILI
As to B1, the binding result (in [1]; in test [2]; in test [3]; in test [4]; with HK68 H3m2-cl9+10+11+12) was “no binding (tested: 5 ug/ml)” in each case.

B2: CR9114 (antibody, V domains shown)
VH: QVQLVQSGAEVKKPGSSVKVSCKSSGGTSNNYAISWVRQAPGQGLDWMGGISPIFGSTAYAQKFQGRVTISADIFSNTAYMELNSLTSEDTAVYFCARHGNYYYYSGMDVWGQGTTVTVSS
VL: SYVLTQPPAVSGTPGQRVTISCSGSDSNIGRRSVNWYQQFPGTAPKLLIYSNDQRPSVVPDRFSGSKSGTSASLAISGLQSEDEAEYYCAAWDDSLKGAVFGGGTQLTVL
For the molecule B2, the binding result in the test with FL4-06 B-m2, with FL4-06 B-m2-CL1+5, in the test with FL4-06 B-m2-CL1+5-GCN4a, in the test with FL4-06 B-m2-CL1+5-GCN4b, with Mal2506-04 B-m2 and in the test with Mal2506-04 B-m2-CL1+5 was “no binding” each time. The binding result in test [5] and in test [6] was “no binding” in each case.

Values taken from patent US20160355553A1 (Janssen / Centocor, published 2016).
